Test results published in the Immune Epitope Database (IEDB).

Legend:
[1] = target: HLA-C*03:03; experiment: IEDB peptide-MHC binding, purified MHC/direct/fluorescence; filed as Kd, often an IC50 or EC50 that approximates it; ≥ and ≤ were set here for values at or beyond the usual limits of such assays; conditions: source organism: Clostridium novyi NT
[2] = target: HLA-C*05:01; experiment: as above; conditions: source organism: Clostridium novyi NT
[3] = target: HLA-A*32:07; experiment: IEDB peptide-MHC binding, purified MHC/competitive/fluorescence; filed as Kd, often an IC50 or EC50 that approximates it; ≥ and ≤ were set here for values at or beyond the usual limits of such assays
[4] = target: HLA-A*32:15; experiment: as above
[5] = target: HLA-A*68:23; experiment: as above
[6] = target: HLA-B*15:42; experiment: as above
[7] = target: HLA-B*27:20; experiment: as above
[8] = target: HLA-B*45:06; experiment: as above
[9] = target: HLA-B*46:01; experiment: as above; conditions: source organism: Clostridium novyi NT
[10] = target: HLA-B*83:01; experiment: as above
[11] = target: HLA-C*06:02; experiment: as above; conditions: source organism: Clostridium novyi NT
[12] = target: HLA-C*14:02; experiment: as above; conditions: source organism: Clostridium novyi NT
[13] = target: HLA-B*73:01; experiment: IEDB peptide-MHC binding, purified MHC/direct/fluorescence; filed as Kd, often an IC50 or EC50 that approximates it; ≥ and ≤ were set here for values at or beyond the usual limits of such assays
[14] = target: HLA-A*01:01; experiment: as above; conditions: source organism: Cryptosporidium parvum
[15] = target: HLA-A*02:01; experiment: as above
[16] = target: HLA-A*03:01; experiment: as above
[17] = target: HLA-A*11:01; experiment: as above; conditions: source organism: Cryptosporidium parvum
[18] = target: HLA-A*26:01; experiment: as above
[19] = target: HLA-A*30:01; experiment: as above; conditions: source organism: Cryptosporidium parvum
[20] = target: HLA-A*31:01; experiment: as above; conditions: source organism: Cryptosporidium parvum
[21] = target: HLA-A*69:01; experiment: as above; conditions: source organism: Cryptosporidium parvum
[22] = target: HLA-B*07:02; experiment: as above; conditions: source organism: Cryptosporidium parvum
[23] = target: HLA-B*08:01; experiment: as above; conditions: source organism: Cryptosporidium parvum
[24] = target: HLA-B*15:01; experiment: as above
[25] = target: HLA-B*27:05; experiment: as above; conditions: source organism: Cryptosporidium parvum
[26] = target: HLA-B*40:01; experiment: as above; conditions: source organism: Cryptosporidium parvum
[27] = target: HLA-B*44:02; experiment: as above; conditions: source organism: Cryptosporidium parvum
[28] = target: HLA-B*58:01; experiment: as above; conditions: source organism: Cryptosporidium parvum
[29] = target: HLA-A*02:06; experiment: as above; conditions: source organism: Cryptosporidium parvum Iowa II
[30] = target: HLA-A*02:12; experiment: as above
[31] = target: HLA-B*15:17; experiment: as above
[32] = target: HLA-B*27:03; experiment: as above
[33] = target: HLA-B*46:01; experiment: as above
[34] = target: HLA-B*51:01; experiment: as above
[35] = target: HLA-B*57:01; experiment: as above
[36] = target: HLA-C*07:02; experiment: as above; conditions: source organism: human gammaherpesvirus 4
[37] = target: HLA-C*14:02; experiment: as above; conditions: source organism: human gammaherpesvirus 4
[38] = target: HLA-C*15:02; experiment: as above; conditions: source organism: human gammaherpesvirus 4
[39] = target: HLA-C*04:01; experiment: IEDB peptide-MHC binding, purified MHC/competitive/fluorescence; filed as Kd, often an IC50 or EC50 that approximates it; ≥ and ≤ were set here for values at or beyond the usual limits of such assays; conditions: source organism: Mycobacterium tuberculosis CDC1551
[40] = target: HLA-A*02:03; experiment: IEDB peptide-MHC binding, purified MHC/direct/fluorescence; filed as Kd, often an IC50 or EC50 that approximates it; ≥ and ≤ were set here for values at or beyond the usual limits of such assays; conditions: source organism: Bacillus cereus H3081.97
[41] = target: HLA-A*02:11; experiment: as above; conditions: source organism: Bacillus cereus H3081.97
[42] = target: HLA-A*02:16; experiment: as above; conditions: source organism: Bacillus cereus H3081.97
[43] = target: HLA-A*02:19; experiment: as above; conditions: source organism: Bacillus cereus H3081.97
[44] = target: HLA-A*29:02; experiment: as above; conditions: source organism: Bacillus cereus H3081.97
[45] = target: HLA-B*18:01; experiment: as above; conditions: source organism: Bacillus cereus H3081.97
[46] = target: HLA-B*39:01; experiment: as above; conditions: source organism: Bacillus cereus H3081.97
[47] = source organism: Clostridium novyi NT
[48] = source organism: Cryptosporidium parvum
[49] = source organism: Cryptosporidium parvum Iowa II
[50] = source organism: human gammaherpesvirus 4
[51] = source organism: Mycobacterium tuberculosis CDC1551
[52] = source organism: Bacillus cereus H3081.97

Sequence: ASMDNTSPM
- Kd [1]: ≤ 1 nM
- Kd [2]: ≥ 20 µM
- Kd [3, 47]: 26.9 nM
- Kd [4, 47]: 223 nM
- Kd [5, 47]: 29.7 nM
- Kd [6, 47]: ≥ 5 µM
- Kd [7, 47]: 239 nM
- Kd [8, 47]: ≥ 5 µM
- Kd [9]: 8.6 nM
- Kd [10, 47]: 147 nM
- Kd [11]: 570 nM
- Kd [12]: 36.4 nM

Sequence: FQANMFLTL
- Kd ([13]; source organism: Bacillus anthracis): ≥ 20 µM

Sequence: KHNSAESAK
- Kd [14]: ≥ 20 µM
- Kd [15, 48]: ≥ 20 µM
- Kd [16, 48]: 12.3 µM
- Kd [17]: ≥ 20 µM
- Kd [18, 48]: ≥ 20 µM
- Kd [19]: 11.9 µM
- Kd [20]: ≥ 20 µM
- Kd [21]: ≥ 20 µM
- Kd [22]: ≥ 20 µM
- Kd [23]: ≥ 20 µM
- Kd [24, 48]: ≥ 20 µM
- Kd [25]: ≥ 20 µM
- Kd [26]: ≥ 20 µM
- Kd [27]: ≥ 20 µM
- Kd [28]: ≥ 20 µM
- Kd [13, 49]: ≥ 20 µM

Sequence: KQMSQPYAV
- Kd [15, 49]: 0.002 µM
- Kd [29]: ≤ 1 nM
- Kd [30, 49]: ≤ 0.001 µM
- Kd [16, 49]: ≥ 20 µM
- Kd [18, 49]: ≥ 20 µM
- Kd [31, 49]: ≥ 20 µM
- Kd [32, 49]: ≥ 20 µM
- Kd [33, 49]: ≥ 20 µM
- Kd [34, 49]: ≥ 20 µM
- Kd [35, 49]: ≥ 20 µM

Sequence: MMAKSNSPF
- Kd [36]: 3.16 µM
- Kd [37]: 8 nM
- Kd [38]: ≥ 20 µM
- Kd [3, 50]: 100 nM
- Kd [4, 50]: 42.8 nM
- Kd [5, 50]: 43.1 nM
- Kd [6, 50]: ≥ 5 µM
- Kd [7, 50]: 48.7 nM
- Kd [8, 50]: ≥ 5 µM
- Kd [10, 50]: ≥ 5000 nM

Sequence: RPREATIIY
- Kd [6, 51]: ≥ 5 µM
- Kd [8, 51]: ≥ 5 µM
- Kd [10, 51]: ≥ 5000 nM
- Kd [39]: ≥ 5 µM

Sequence: YSTVRDLFL
- Kd [15, 52]: ≥ 20 µM
- Kd [40]: ≥ 20 µM
- Kd [41]: ≥ 20 µM
- Kd [30, 52]: ≥ 20 µM
- Kd [42]: ≥ 20 µM
- Kd [43]: ≥ 20 µM
- Kd [16, 52]: ≥ 20 µM
- Kd [18, 52]: ≥ 20 µM
- Kd [44]: ≥ 20 µM
- Kd [24, 52]: ≥ 20 µM
- Kd [31, 52]: ≤ 0.001 µM
- Kd [45]: ≥ 20 µM
- Kd [32, 52]: ≥ 20 µM
- Kd [46]: ≥ 20 µM
- Kd [33, 52]: ≥ 20 µM
- Kd [34, 52]: ≥ 20 µM
- Kd [35, 52]: ≥ 20 µM
